Assay results reported in paper PMC7251212.

Biological target: recombinant TdfH (Neisseria gonorrhoeae TonB-dependent transporter, NGO0952) (Neisseria gonorrhoeae)
Assay: ITC; Nano ITC, 25°C, 1x PBS with 0.05% DDM; TdfH (300 μl, 20 μM) in the cell, CP sample (200 μM) in 20 injections of 2.5 μl; fitted with NanoAnalyze to a two-state (multisite) model, TKO to a single-site model

B1: human calprotectin (heterodimer of S100A8 and S100A9) (complex)
chain 1: MLTELEKALNSIIDVYHKYSLIKGNFHAVYRDDLKKLLETECPQYIRKKGADVWFKELDINTDGAVNFQEFLILVIKMGVAAHKKSHEESHKE
chain 2: KMSQLERNIETIINTFHQYSVKLGHPDTLNQGEFKELVRKDLQNFLKKENKNEKVIEHIMEDLDTNADKQLSFEEFIMLMARLTWASHEKMHEGDEGPGHHHKPGLGEGTP
  KD, high-affinity interaction (two-state model): 0.004 µM
  KD, low-affinity interaction (two-state model): 35 µM
